This note sets out measurements from paper PMC11585597.

In experiment [1] the target is HIS-∆N-term DERA (deoxyribose 5-phosphate aldolase of the SPU6 BMC locus, N-terminal extension deleted) (Chloroflexi bacterium GWB2_54_36). The experiment can be described thus: SEC. In general terms: Size exclusion chromatography separates by hydrodynamic size, large species first.
The target in experiment [2] is StrepII-∆N-term DERA (Chloroflexi bacterium GWB2_54_36). The experiment can be described thus: pull-down + SEC.

In the case of “HIS-∆N-term DERA (deoxyribose 5-phosphate aldolase of the SPU6 BMC locus, N-terminal extension deleted) (domain or fragment)”, the stoichiometry N – broadly, a count of units in the complex or per binding partner – in experiment [1] stood at 2.

Take “HIS-RPI (ribose 5-phosphate isomerase B family protein of the SPU6 BMC locus, full length) (enzyme)”: in experiment [2], the stoichiometry N amounted to 1 and the subunits of each protein in the complex is more than 2.
